Measurements: the supplement of paper PMC9170038

Test system: MS2 coat protein
Assay: apparent KD of MS2 coat protein; higher = weaker reporter binding
Details: Eterna round: R107
Protocol: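 RNA-MaP round R107: designed RNA switches with theophylline, tryptophan, arginine or FMN aptamers are transcribed on-chip within common flanks. They are titrated with SNAP-549-labelled MS2 coat protein in RNA-MaP buffer (100 mM Tris pH 7.5, 80 mM KCl, 4 mM MgCl2), without ligand or with the indicated ligand. Median apparent KD per design.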

[1] = input ligand: theophylline 20 uM
[2] = input ligand: tryptophan 2.4 mM
[3] = input ligand: theophylline 2 mM

Sequence | apparent KD of MS2 coat protein (input ligand: arginine 13.2 mM) [nM] | apparent KD of MS2 coat protein [1] [nM] | apparent KD of MS2 coat protein [2] [nM] | apparent KD of MS2 coat protein (input ligand: none) [nM] | apparent KD of MS2 coat protein [3] [nM]
ACCUAAGCCACAGAUACCAGAGUAAUAGGCCAAUUUCAAAACAUGAGGAUCACCCAUGUACUCCCUUGGCAGCUGCGAAUCGAAA [theeternabot_exclusion_MS2_Theo_B_30] | 11.1 | 13.6 | 10.3 |  | 
ACCUGUACGAAAAGUGCAGGACAUGGAAAUCGAGGACCGGUACGGCCGCCACUCGUAUAAAACAAGUGGAUCACCCUUGUCCAUG [TrypAS 2 #AlternativeMS2 #Zipper #StaticStem] | 320 | 960 | 1360 | 773 | 1500
ACCUGUACGAAAAGUGCAGGACAUGGUAAACGAGGACCGGUACGGCCGCCACUCGAAUAACAAGUGGAUCACCCUUGUAACCAUG [TrypAS 5 #AlternativeMS2 #Zipper #StaticStem] | 39.6 | 573 | 1090 | 223 | 3020
ACGAAACAAGCGGCCGCCACUUCGUGGUGCUAAGGCUUGAUACUACAUGAGGAUCACCCAUGUCGAAGGACCGGGCUUGCGACUG [theeternabot_sameState_MS2_Trp_B_33] | 43.4 | 80 |  |  | 60
ACGAACGAUAGUGAUACCAGACGUACAUGAGGAUCACCCAUGUUAUACACAUGGUUUAUUGUCCCUUGGCAGCACGUUAAGUUCG [JR_ExcTheophyB_Sub005] | 98.5 | 274 | 289 |  | 
ACGAUAGGACAUGAGGAUCACCCAUGUGAUACCAGCCUGGAAACAGGCCCUUGGCAGCACAAAUACUCCAGAAACCUAUCGAAUA [TheoAX2 #MicroSwitchBubble] | 124 | 294 | 273 |  | 
ACGCGUCAAGAGUAAAAUCCGUCAAGUGAUACCAGCCACAACGUAGGCCCUUGGCAGCACAUGAGGAUCACCCAUGUAAUAAGGA [Gedigerace] | 42.4 | 53.4 | 22.5 | 33.3 | 670
ACUACGAAGACGGCCGCCACUGAUAUUCGUAGAUCCAUCAAUACAUGAGGAUCACCCAUGUAUAUCAGGACCGGGUCAAGAUGGU [Tryp B Ex t6] | 23.3 | 39.2 |  |  | 28.2
ACUAGAGGUGGAAGGAGCGGGAGACAUGAGCAUCACAUGAGGAUCACCCAUGUAGGAUCAUCCCAGGUAGGUCGCCAUGUCGAAA [h.hgmullin] | 88.4 | 290 | 173 | 363 | 218
ACUAGCGCACAUGAUACCAGCGACAUGAGGAUCACCCAUGUACGGCGUGUAUCGAAAGGUUGCCCUUGGCAGCAUGAUAGCGCUG [Cebiri] | 12.6 | 26.1 | 14.5 |  | 
ACUCGGCAUCAUGAUACCAGAGAGCCCGAGAUGCCUUAACACAUGAGGAUCACCCAUGUACUCCCUUGGCAGCAUCAUGCACUAU [theeternabot_exclusion_MS2_Theo_B_31] | 16.6 | 29 | 22.7 |  | 
ACUCGGUGUUUGUUGCUCCGAGUACGUGAUACCAGUUAAUUUUAUGGCCCUUGGCAGCAUGGGACAUGAGGAUCACCCAUGUUUA [#04 SameState-TheophyllineA] | 125 | 344 | 318 |  | 
AGAAUAACACAUGAGGAUCACCCAUGUGAUACCAGCUAGGAAACUAGCCCUUGGCAGCACAUAAUCCUCAUGAGCUGCCAUAAUA [(M1)-(M2)-(T1)-(T2)-(M)'-(T)'_Design2_2/19/17] | 12 | 19.2 | 12.3 |  | 
AGAAUAUAGUCGGCCGCCACUCUACAUACAUGAGGAUCACCCAUGUUUACAUAGUGGAAACACAUGAGGACCGGGACAUAGGCAU [#16 Same State - Tryptophan B] | 8.17 | 13.2 | 9.98 | 12.2 | 11
AGACAUGAGGAUCACCCAUGUAGUACGGAUACCAGAUCCAGAUGCAUCCCUUGGCAGCUGUGGUACAGCGUUACAUCGCUCGUAG [Exclusion - Theophylline A (Freestyle 22)] | 17 | 23.9 | 18.8 |  | 
